One molecule from patent US20070265350A1 (UNIVERSITY OF IOWA RESEARCH FOUNDATION, published 2007) can be followed below.

The experiment concerns the target T1, His-Cdc42 (UniProt P60953 1-191, limits assumed).
T1 construct: Bought protein; also called His-tagged Cdc42; Cdc42-GTPγS; not shown: His tag
The experiment is described as follows: in vitro pull-down of immobilized His-Cdc42 (nucleotide analogs as indicated) with purified bovine SOD1, Western blot (FIG. 1B). Here is the method:
Pull-down assays with GST- and His-tagged proteins. Dynabeads talon for histidine tagged proteins were washed with potassium phosphate buffer (PPHB) containing 100 mM KH₂PO₄, 10 mM NaCl, 0.25 mM MgCl₂ and 100 nM CaCl₂. […] The GTPases were either used directly or preloaded with either GTPγS or GDPβS and then washed. […] Samples were incubated at room temperature (RT) for 30 minutes with intermittent gentle agitation. […] The fourth wash was carried out in 50 mM Tris pH 6.8. Proteins were eluted using 20 μl 125 mM imidazole and samples were then mixed with SDS-PAGE reducing loading buffer and separated by SDS-PAGE for Western blotting.
A general note: Immunoblotting shows a protein as a band on a membrane.

T1 sequence (P60953 whole entry): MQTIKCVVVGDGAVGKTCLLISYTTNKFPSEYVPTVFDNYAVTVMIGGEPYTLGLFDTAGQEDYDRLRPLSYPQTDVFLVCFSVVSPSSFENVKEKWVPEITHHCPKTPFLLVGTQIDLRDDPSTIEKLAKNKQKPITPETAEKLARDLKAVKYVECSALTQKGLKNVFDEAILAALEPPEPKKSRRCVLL

B1: Bovine copper/zinc superoxide dismutase (SOD1), native (enzyme)
chain: not shown
notes: Native, metalated enzyme as bought; also called bovine SOD1; Bov.SOD1
For the molecule B1, the binding result is given as “no binding”.
